According to US20100247558A1 (RAMOT AT TEL AVIV UNIVERSITY, published 2010):
“And” between values parts separate entries of the source, which are not always exact repeats. Identical values can stand only once. Where no end group is shown, it is not given here.

Assays:
[1] = molecular target: T1, gp120451 (gp120 of HIV-1 isolate 451) (HIV-1 isolate 451); assay: quantitative ELISA (FIG. 7)
T1 construct: also called soluble monomeric gp120451

[2] = molecular target: T2, CD4 protein (UniProt P01730 26-394); assay: ELISA: m1 phage captured by anti-M13 antibody, incubated with CD4, probed with anti-CD4 mAb
T2 construct: also called soluble CD4

B1: m1 peptide (phage-displayed) (peptide)
peptide: CDRRDLPQWAKREC
modifications: not fully specified (C-terminus); cysteine pairing not given here; also: fused to N terminus of phage pVIII (mosaic fth1 phage)
notes: Tested as a fusion to protein 8 on filamentous phage (fth1 vector, mosaic phage); 12mer flanked by constant cysteines; not shown: fd phage protein 8 (pVIII) display carrier at the peptide's C end
[1]
  Kd: 69 nM and 69.2 nM
[2]
  binding result: no binding
